Experimental findings from patent publication US20140087995A1 (published 2014) are described below.

Numbered stars: 1 amine (or outer) side, 2 acyl side, 3 side chain; on linkers, the order of the positions; unused ones are H or OH. Bridge positions count the residues as written; N and C are the ends. Side chains are listed from the residue outwards. Ends that are not written are not given here. * marks the point of attachment. C20 diacid = O=C(O)CCCCCCCCCCCCCCCCCCC(=O)*; γGlu = O=C(O)[C@H](CCC(=O)[*:2])N[*:1]; AEEA = NCCOCCOCC(=O)O

Sequences and labels used below:
T1: rat calcitonin receptor (rat, UniProt P32214 25-516)
T1 construct: whole, on cells; Membranes prepared from transiently transfected BHK tk'ts 13 cells (Assay VIII); also called rCTR; rCT
T1 sequence (looked up): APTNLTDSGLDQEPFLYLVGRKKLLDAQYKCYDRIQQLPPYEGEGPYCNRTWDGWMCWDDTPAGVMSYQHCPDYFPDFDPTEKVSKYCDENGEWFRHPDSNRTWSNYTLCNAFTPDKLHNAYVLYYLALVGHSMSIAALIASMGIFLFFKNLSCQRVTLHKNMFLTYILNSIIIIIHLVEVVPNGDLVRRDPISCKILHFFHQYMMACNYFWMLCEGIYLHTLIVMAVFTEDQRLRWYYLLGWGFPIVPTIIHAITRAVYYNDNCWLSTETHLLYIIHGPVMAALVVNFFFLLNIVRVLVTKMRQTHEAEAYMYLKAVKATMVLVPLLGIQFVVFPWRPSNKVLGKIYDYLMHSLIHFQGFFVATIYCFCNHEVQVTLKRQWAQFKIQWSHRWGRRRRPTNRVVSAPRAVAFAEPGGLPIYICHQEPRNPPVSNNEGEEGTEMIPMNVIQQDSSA

T2: human calcitonin receptor (human, UniProt P30988 25-474)
T2 construct: whole, on cells; Membranes prepared from a stably transfected BHK cell line (Assay VII); also called hCTR; hCT
T2 sequence (looked up): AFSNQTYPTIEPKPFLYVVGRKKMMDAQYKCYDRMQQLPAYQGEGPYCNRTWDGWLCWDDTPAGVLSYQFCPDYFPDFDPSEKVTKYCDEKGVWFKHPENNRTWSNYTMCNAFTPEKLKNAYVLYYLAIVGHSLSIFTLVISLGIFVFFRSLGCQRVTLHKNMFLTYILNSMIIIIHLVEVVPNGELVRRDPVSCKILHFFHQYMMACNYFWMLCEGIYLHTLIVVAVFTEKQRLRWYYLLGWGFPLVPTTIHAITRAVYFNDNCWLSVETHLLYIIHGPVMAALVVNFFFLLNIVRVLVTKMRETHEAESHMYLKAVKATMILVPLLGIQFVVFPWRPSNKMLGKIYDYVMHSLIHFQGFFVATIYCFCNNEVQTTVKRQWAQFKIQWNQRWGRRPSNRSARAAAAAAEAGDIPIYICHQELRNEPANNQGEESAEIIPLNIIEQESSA

T3: rat amylin receptor (rat calcitonin receptor + rat RAMP 3) (rat, UniProt P32214 25-516; Q9JJ73 23-147)
T3 construct: whole, on cells; Membranes prepared from transiently transfected BHK tk'ts 13 cells (Assay VI); also called rAmylin-R; rAmylin
T3 sequence (looked up) 1: T1 sequence (looked up)
T3 sequence (looked up) 2: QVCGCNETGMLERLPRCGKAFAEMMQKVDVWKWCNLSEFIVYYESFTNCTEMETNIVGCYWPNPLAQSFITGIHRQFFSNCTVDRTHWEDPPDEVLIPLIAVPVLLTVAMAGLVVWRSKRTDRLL

B1: N^ε1-[2-[2-[2-[[(4S)-4-carboxy-4-(19-carboxynonadecanoylamino)butanoyl]amino]ethoxy]ethoxy]acetyl]-[His14,Arg17,Pro21,Pro27,His34]-h-amylin (peptide)
peptide: K([AEEA-γGlu-C20 diacid])CNTATCATQRLAHFLRHSSPNFGAIPSSTNVGHNTY-NH2
modifications: disulfide 2-7; N-terminus assumed
SMILES: CC[C@H](C)[C@H](NC(=O)[C@H](C)NC(=O)CNC(=O)[C@H](Cc1ccccc1)NC(=O)[C@H](CC(N)=O)NC(=O)[C@@H]1CCCN1C(=O)[C@H](CO)NC(=O)[C@H](CO)NC(=O)[C@H](Cc1c[nH]cn1)NC(=O)[C@H](CCCNC(=N)N)NC(=O)[C@H](CC(C)C)NC(=O)[C@H](Cc1ccccc1)NC(=O)[C@H](Cc1c[nH]cn1)NC(=O)[C@H](C)NC(=O)[C@H](CC(C)C)NC(=O)[C@H](CCCNC(=N)N)NC(=O)[C@H](CCC(N)=O)NC(=O)[C@@H](NC(=O)[C@H](C)NC(=O)[C@@H]1CSSC[C@H](NC(=O)[C@@H](N)CCCCNC(=O)COCCOCCNC(=O)CC[C@H](NC(=O)CCCCCCCCCCCCCCCCCCC(=O)O)C(=O)O)C(=O)N[C@@H](CC(N)=O)C(=O)N[C@@H]([C@@H](C)O)C(=O)N[C@@H](C)C(=O)N[C@@H]([C@@H](C)O)C(=O)N1)[C@@H](C)O)C(=O)N1CCC[C@H]1C(=O)N[C@@H](CO)C(=O)N[C@@H](CO)C(=O)N[C@H](C(=O)N[C@@H](CC(N)=O)C(=O)N[C@H](C(=O)NCC(=O)N[C@@H](Cc1c[nH]cn1)C(=O)N[C@@H](CC(N)=O)C(=O)N[C@H](C(=O)N[C@@H](Cc1ccc(O)cc1)C(N)=O)[C@@H](C)O)C(C)C)[C@@H](C)O
notes: Analogue of human amylin; also called compound 80
B2: N^ε1-[2-[2-[2-[[(4S)-4-carboxy-4-(19-carboxynonadecanoylamino)butanoyl]amino]ethoxy]ethoxy]acetyl]-[Lys14,Arg17,Pro21,Pro27,Pro31]-h-amylin (peptide)
peptide: K([AEEA-γGlu-C20 diacid])CNTATCATQRLAKFLRHSSPNFGAIPSSTPVGSNTY-NH2
modifications: disulfide 2-7; N-terminus assumed
SMILES: CC[C@H](C)[C@H](NC(=O)[C@H](C)NC(=O)CNC(=O)[C@H](Cc1ccccc1)NC(=O)[C@H](CC(N)=O)NC(=O)[C@@H]1CCCN1C(=O)[C@H](CO)NC(=O)[C@H](CO)NC(=O)[C@H](Cc1c[nH]cn1)NC(=O)[C@H](CCCNC(=N)N)NC(=O)[C@H](CC(C)C)NC(=O)[C@H](Cc1ccccc1)NC(=O)[C@H](CCCCN)NC(=O)[C@H](C)NC(=O)[C@H](CC(C)C)NC(=O)[C@H](CCCNC(=N)N)NC(=O)[C@H](CCC(N)=O)NC(=O)[C@@H](NC(=O)[C@H](C)NC(=O)[C@@H]1CSSC[C@H](NC(=O)[C@@H](N)CCCCNC(=O)COCCOCCNC(=O)CC[C@H](NC(=O)CCCCCCCCCCCCCCCCCCC(=O)O)C(=O)O)C(=O)N[C@@H](CC(N)=O)C(=O)N[C@@H]([C@@H](C)O)C(=O)N[C@@H](C)C(=O)N[C@@H]([C@@H](C)O)C(=O)N1)[C@@H](C)O)C(=O)N1CCC[C@H]1C(=O)N[C@@H](CO)C(=O)N[C@@H](CO)C(=O)N[C@H](C(=O)N1CCC[C@H]1C(=O)N[C@H](C(=O)NCC(=O)N[C@@H](CO)C(=O)N[C@@H](CC(N)=O)C(=O)N[C@H](C(=O)N[C@@H](Cc1ccc(O)cc1)C(N)=O)[C@@H](C)O)C(C)C)[C@@H](C)O
notes: Analogue of human amylin; also called compound 74
B3: N^ε1-[2-[2-[2-[[(4S)-4-carboxy-4-(19-carboxynonadecanoylamino)butanoyl]amino]ethoxy]ethoxy]acetyl]-[His14,Arg17,Pro21,Pro27,Pro31]-h-amylin (peptide)
peptide: K([AEEA-γGlu-C20 diacid])CNTATCATQRLAHFLRHSSPNFGAIPSSTPVGSNTY-NH2
modifications: disulfide 2-7; N-terminus assumed
SMILES: CC[C@H](C)[C@H](NC(=O)[C@H](C)NC(=O)CNC(=O)[C@H](Cc1ccccc1)NC(=O)[C@H](CC(N)=O)NC(=O)[C@@H]1CCCN1C(=O)[C@H](CO)NC(=O)[C@H](CO)NC(=O)[C@H](Cc1c[nH]cn1)NC(=O)[C@H](CCCNC(=N)N)NC(=O)[C@H](CC(C)C)NC(=O)[C@H](Cc1ccccc1)NC(=O)[C@H](Cc1c[nH]cn1)NC(=O)[C@H](C)NC(=O)[C@H](CC(C)C)NC(=O)[C@H](CCCNC(=N)N)NC(=O)[C@H](CCC(N)=O)NC(=O)[C@@H](NC(=O)[C@H](C)NC(=O)[C@@H]1CSSC[C@H](NC(=O)[C@@H](N)CCCCNC(=O)COCCOCCNC(=O)CC[C@H](NC(=O)CCCCCCCCCCCCCCCCCCC(=O)O)C(=O)O)C(=O)N[C@@H](CC(N)=O)C(=O)N[C@@H]([C@@H](C)O)C(=O)N[C@@H](C)C(=O)N[C@@H]([C@@H](C)O)C(=O)N1)[C@@H](C)O)C(=O)N1CCC[C@H]1C(=O)N[C@@H](CO)C(=O)N[C@@H](CO)C(=O)N[C@H](C(=O)N1CCC[C@H]1C(=O)N[C@H](C(=O)NCC(=O)N[C@@H](CO)C(=O)N[C@@H](CC(N)=O)C(=O)N[C@H](C(=O)N[C@@H](Cc1ccc(O)cc1)C(N)=O)[C@@H](C)O)C(C)C)[C@@H](C)O
notes: Analogue of human amylin; also called compound 61
B4: N^ε1-[2-[2-[2-[[(4S)-4-carboxy-4-(19-carboxynonadecanoylamino)butanoyl]amino]ethoxy]ethoxy]acetyl]-[His14,Arg17,Pro21,Pro27,Pro34]-h-amylin (peptide)
peptide: K([AEEA-γGlu-C20 diacid])CNTATCATQRLAHFLRHSSPNFGAIPSSTNVGPNTY-NH2
modifications: disulfide 2-7; N-terminus assumed
SMILES: CC[C@H](C)[C@H](NC(=O)[C@H](C)NC(=O)CNC(=O)[C@H](Cc1ccccc1)NC(=O)[C@H](CC(N)=O)NC(=O)[C@@H]1CCCN1C(=O)[C@H](CO)NC(=O)[C@H](CO)NC(=O)[C@H](Cc1c[nH]cn1)NC(=O)[C@H](CCCNC(=N)N)NC(=O)[C@H](CC(C)C)NC(=O)[C@H](Cc1ccccc1)NC(=O)[C@H](Cc1c[nH]cn1)NC(=O)[C@H](C)NC(=O)[C@H](CC(C)C)NC(=O)[C@H](CCCNC(=N)N)NC(=O)[C@H](CCC(N)=O)NC(=O)[C@@H](NC(=O)[C@H](C)NC(=O)[C@@H]1CSSC[C@H](NC(=O)[C@@H](N)CCCCNC(=O)COCCOCCNC(=O)CC[C@H](NC(=O)CCCCCCCCCCCCCCCCCCC(=O)O)C(=O)O)C(=O)N[C@@H](CC(N)=O)C(=O)N[C@@H]([C@@H](C)O)C(=O)N[C@@H](C)C(=O)N[C@@H]([C@@H](C)O)C(=O)N1)[C@@H](C)O)C(=O)N1CCC[C@H]1C(=O)N[C@@H](CO)C(=O)N[C@@H](CO)C(=O)N[C@H](C(=O)N[C@@H](CC(N)=O)C(=O)N[C@H](C(=O)NCC(=O)N1CCC[C@H]1C(=O)N[C@@H](CC(N)=O)C(=O)N[C@H](C(=O)N[C@@H](Cc1ccc(O)cc1)C(N)=O)[C@@H](C)O)C(C)C)[C@@H](C)O
notes: Analogue of human amylin; also called compound 68
B5: N^ε1-[2-[2-[2-[[(4S)-4-carboxy-4-(19-carboxynonadecanoylamino)butanoyl]amino]ethoxy]ethoxy]acetyl]-[Ser14,Arg17,Pro21,Pro27,Pro31]-h-amylin (peptide)
peptide: K([AEEA-γGlu-C20 diacid])CNTATCATQRLASFLRHSSPNFGAIPSSTPVGSNTY-NH2
modifications: disulfide 2-7; N-terminus assumed
SMILES: CC[C@H](C)[C@H](NC(=O)[C@H](C)NC(=O)CNC(=O)[C@H](Cc1ccccc1)NC(=O)[C@H](CC(N)=O)NC(=O)[C@@H]1CCCN1C(=O)[C@H](CO)NC(=O)[C@H](CO)NC(=O)[C@H](Cc1c[nH]cn1)NC(=O)[C@H](CCCNC(=N)N)NC(=O)[C@H](CC(C)C)NC(=O)[C@H](Cc1ccccc1)NC(=O)[C@H](CO)NC(=O)[C@H](C)NC(=O)[C@H](CC(C)C)NC(=O)[C@H](CCCNC(=N)N)NC(=O)[C@H](CCC(N)=O)NC(=O)[C@@H](NC(=O)[C@H](C)NC(=O)[C@@H]1CSSC[C@H](NC(=O)[C@@H](N)CCCCNC(=O)COCCOCCNC(=O)CC[C@H](NC(=O)CCCCCCCCCCCCCCCCCCC(=O)O)C(=O)O)C(=O)N[C@@H](CC(N)=O)C(=O)N[C@@H]([C@@H](C)O)C(=O)N[C@@H](C)C(=O)N[C@@H]([C@@H](C)O)C(=O)N1)[C@@H](C)O)C(=O)N1CCC[C@H]1C(=O)N[C@@H](CO)C(=O)N[C@@H](CO)C(=O)N[C@H](C(=O)N1CCC[C@H]1C(=O)N[C@H](C(=O)NCC(=O)N[C@@H](CO)C(=O)N[C@@H](CC(N)=O)C(=O)N[C@H](C(=O)N[C@@H](Cc1ccc(O)cc1)C(N)=O)[C@@H](C)O)C(C)C)[C@@H](C)O
notes: Analogue of human amylin; also called compound 73

The target in one test is T1, rat calcitonin receptor. Nature of the test: ratio of binding IC50s: rat calcitonin receptor / rat amylin receptor (reference).
Turning to B1, the “Ratio rCT/rAmylin binding” value was determined as 36.2.
Still for that read-out and setting: to B2 belongs 22.3.
Same read-out and setting: the result for B3 reads 39.7.
Still for that read-out and setting: to B4 belongs 122.
With B5, the “Ratio rCT/rAmylin binding” value turned out to be 178.

The target in another test is T2, human calcitonin receptor. Nature of the test: ratio of binding IC50s: human calcitonin receptor / human amylin receptor (reference). An outline of the steps:
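Competition binding by SPA uses membrane preparations (35 ng/μL final) in pH 7.4 Hepes buffer with 1 mM CaCl2 and 5 mM MgCl₂. Incubation lasts 120 min at 25° C, and IC₅₀ comes from one-site fitting.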
For B1, the “Ratio hCT/hAmylin binding” value amounted to 68.1.
For B2, the “Ratio hCT/hAmylin binding” value is 101.
Same read-out and setting: the result for B3 reads 66.7.
Same read-out and setting: to B4 belongs 64.4; to B5, 51.7.

The next test concerns the target T1, rat calcitonin receptor. Nature of the test: SPA competition vs 125I-calcitonin, membranes of BHK cells with rat calcitonin receptor (Assay VIII).
As for B1, the IC50 is 60.4 nM.
Still for that read-out and setting: to B2 belongs 109 nM; to B3, 33.4 nM.
Same read-out and setting: to B4 belongs 28.5 nM; to B5, 50.3 nM.

The target of another test is T3, rat amylin receptor (rat calcitonin …). As to the kind of experiment: SPA competition vs 125I-rat amylin, membranes of BHK cells with rat calcitonin receptor + rat RAMP3 (Assay VI).
Turning to B1, the 50% inhibitory concentration (IC50) is 1.67 nM.
On the same count and under the same terms, the result for B2 reads 4.89 nM.
The same measure, in the same setting: the result for B3 reads 0.842 nM.
Turning to B4, the IC50 was 0.234 nM.
On to B5, for which the IC50 is 0.283 nM.

What is called IC50 is the midpoint of a concentration-inhibition curve.
